Source: PMC10197565 (bioRxiv, 2023)

Target: the molecule itself
Assay: cryo-EM structure

B1: MBP-Vpu full length (HIV-1 Vpu fused to maltose binding protein) (natural protein)
chain: MQPIPIVAIVALVVAIIIAIVVWSIVIIEYRKILRQRKIDRLIDRLIERAEDSGNESEGEISALVEMGVEMGHHAPWDVDDL
stoichiometry N: 6
